Assays:
Experiment in all cases: EMSA
Settings in all cases: EMSA: 20 mM HEPES pH 7.3, 150 mM NaCl, 0.5 mM TCEP, 30 min room temperature, 0.5 uM nucleosome or DNA, FRET: 20 mM HEPES pH 7.1, 100 mM NaCl
[1] = molecular target: MBP-DBD C/EBPalpha (UniProt P53566)
[2] = molecular target: PU.1 ETS (ETSPU.1) (mouse) (UniProt P17433)
[3] = molecular target: PU.1 ETS Q218H Q218H (mouse) (UniProt P17433)

Sequence of MBP-DBD C/EBPalpha (P53566 214-359): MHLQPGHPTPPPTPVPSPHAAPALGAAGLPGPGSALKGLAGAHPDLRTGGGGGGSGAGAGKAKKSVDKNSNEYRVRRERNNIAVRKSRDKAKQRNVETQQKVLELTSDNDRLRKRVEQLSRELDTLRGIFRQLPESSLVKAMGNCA

Sequence | Kd [1] | fold reduction in binding affinity (fold reduction in affinity vs WT H2A) [2] | binding signal (fold reduction in affinity vs WT) [3]
TAGGTGCAGGGCCTCTCGGCTGCTGATCTTCAGCAACTTGCTGAGAGTTGCAGCATTGCTGAGTCTTAGCAATGGATACTTCCCGATTCCCCTCACAAAAATAGGTCAGTCTGTCTGGCTAGTTCTGTACTTGCAGACACAGGGCATGTGGGGTTCCTATTT (double strand) [Cmut CX3CR1 nucleosome] | 2400 nM |  | 
TAGGTGCAGGGCCTCTCGGCTGCTGATCTTCAGCTGGTTGCTGAGAGTTGCAGCATTGCTGAGTCTTAGCAATGGATACTTCCCGATTCCCCTCACAAAAATAGGTCAGTCTGTCTGGCTAGTTCTGTACTTGCAGACACAGGGCATGTGGGGTTCCTATTT (double strand) [162 bp CX3CR1 nucleosome, 3A H2A (K75A;K76A;T77A)] |  | 3 | 
TAGGTGCAGGGCCTCTCGGCTGCTGATCTTCAGCTGGTTGCTGAGAGTTGCAGCATTGCTGAGTCTTAGCAATGGATACTTCCCGATTCCCCTCACAAAAATAGGTCAGTCTGTCTGGCTAGTTCTGTACTTGCAGACACAGGGCATGTGGGGTTCCTATTT (double strand) [162 bp CX3CR1 nucleosome] | 1700 nM |  | 2
